These results are taken from US20140087995A1 (published 2014).

Numbered stars: 1 amine (or outer) side, 2 acyl side, 3 side chain; on linkers, the order of the positions; unused ones are H or OH. Bridge positions count the residues as written; N and C are the ends. Side chains are listed from the residue outwards. Ends that are not written are not given here. * marks the point of attachment. C20 diacid = O=C(O)CCCCCCCCCCCCCCCCCCC(=O)*; γGlu = O=C(O)[C@H](CCC(=O)[*:2])N[*:1]

One test deals with T1, human amylin receptor (human, UniProt P30988 25-474; O60896 24-148, limits assumed).
T1 construct: whole, on cells; Assay used cell membranes of the Amylin 3(a)/CRE-luc BHK cells; the complex is called the human amylin receptor; also called hAmylin-R; hAmylinR
T1 sequence (looked up) 1: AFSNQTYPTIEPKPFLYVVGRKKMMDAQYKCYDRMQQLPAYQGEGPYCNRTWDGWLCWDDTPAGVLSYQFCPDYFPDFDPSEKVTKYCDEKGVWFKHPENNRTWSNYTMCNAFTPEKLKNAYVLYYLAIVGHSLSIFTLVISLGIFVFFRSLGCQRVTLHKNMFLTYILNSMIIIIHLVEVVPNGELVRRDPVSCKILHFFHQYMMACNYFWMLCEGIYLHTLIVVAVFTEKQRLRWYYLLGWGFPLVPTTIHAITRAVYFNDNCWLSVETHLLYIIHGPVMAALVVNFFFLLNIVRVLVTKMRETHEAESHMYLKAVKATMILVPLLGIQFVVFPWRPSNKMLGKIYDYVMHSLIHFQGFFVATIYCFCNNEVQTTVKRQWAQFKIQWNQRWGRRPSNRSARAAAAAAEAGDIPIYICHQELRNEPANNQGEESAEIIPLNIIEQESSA
T1 sequence (looked up) 2: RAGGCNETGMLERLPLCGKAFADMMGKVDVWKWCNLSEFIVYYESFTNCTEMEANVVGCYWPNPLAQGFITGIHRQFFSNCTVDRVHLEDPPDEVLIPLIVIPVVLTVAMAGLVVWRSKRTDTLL
Briefly: SPA radioligand competition (125I-rat amylin), membranes of BHK cells with human calcitonin receptor + RAMP-3. On the procedure:
The binding assay was performed using scintillation proximity assay (SPA) beads (RPNQ0001) from PerkinElmer and cell membranes from the Amylin 3(a)/CRE-luc cells (as described in Assay (II)) were used. Membranes were prepared in the following way; the cells were rinsed with PBS and incubated with Versene for approximately 5 min before harvesting. The cells were flushed with PBS and the cell-suspension was centrifuged for 5 min at 1000 rpm. Cells were homogenized (ultrathurrax) in a buffer containing 20 mM Na-HEPES and 10 mM EDTA (pH 7.4) and centrifuged at 20.000 rpm for 15 min. The resulting pellet was resuspended, homogenized and centrifuged (20.000 rpm, 15 min) in a buffer containing 20 mM Na-HEPES and 0.1 mM EDTA (pH 7.4, buffer 2). The resulting pellet was resuspended in buffer 2 and protein concentration was measured (BCA protein Assay, Pierce). The homogenate was kept cold during the whole procedure. The membranes were kept at −80° C. until use. The assay was performed in a 384 well Optiplate (PerkinElmer) in a total volume of 40 ul. Membranes were mixed with SPA beads. Final concentration of membranes 35 ng/μL final and SPA beads was 0.05 mg/well. Test-compounds were dissolved in DMSO and further diluted in assay buffer (50 mM Hepes, pH 7.4, 1 mM CaCl2, 5 mM MgCl₂, 0.1% OA and 0.02% Tween20). […] The final mixture was incubated with shaking at 400 rpm for 120 min at 25° C. prior to centrifugation (1500 rpm, 10 min). Samples were analyzed on TopCounter™ (Packard). The IC₅₀ was calculated using (one site binding competition analysis) GraphPad Prism5 as a measure of receptor affinity.
On the technique in general: Displacement assays read how much labelled ligand stays bound in the presence of the test substance.

Test [1] deals with T2, human calcitonin receptor (human, UniProt P30988 25-474).
T2 construct: whole, on cells; Assay used cell membranes of the transfected BHK cells; also called hCTR; hCT
T2 sequence (looked up): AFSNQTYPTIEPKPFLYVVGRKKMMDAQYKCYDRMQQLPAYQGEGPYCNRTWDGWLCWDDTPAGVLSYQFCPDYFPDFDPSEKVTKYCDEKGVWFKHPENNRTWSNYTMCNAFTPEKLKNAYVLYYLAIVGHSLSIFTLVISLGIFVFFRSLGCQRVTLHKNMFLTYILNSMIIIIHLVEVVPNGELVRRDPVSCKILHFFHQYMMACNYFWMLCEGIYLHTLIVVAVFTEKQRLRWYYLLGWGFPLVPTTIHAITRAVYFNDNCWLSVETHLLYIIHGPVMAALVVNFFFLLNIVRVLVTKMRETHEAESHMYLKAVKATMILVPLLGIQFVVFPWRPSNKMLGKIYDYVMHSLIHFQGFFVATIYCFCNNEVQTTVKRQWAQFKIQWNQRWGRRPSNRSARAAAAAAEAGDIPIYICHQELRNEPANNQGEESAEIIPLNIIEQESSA
In words: SPA radioligand competition (125I-calcitonin), membranes of BHK cells with human calcitonin receptor. In short, it runs like this: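 BHK hCTR membranes 35 ng/μL + SPA beads 0.05 mg/well; buffer 50 mM Hepes pH 7.4, 1 mM CaCl2, 5 mM MgCl₂, 0.1% OA, 0.02% Tween20. 120 min, 25° C., shaking. Scintillation count; IC50 by one-site binding competition.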

For test [2], the target named is T2, human calcitonin receptor. Briefly: ratio IC50 hCTR / IC50 hAmylin-R of the two SPA competition assays; reference: human amylin receptor. In short, it runs like this:
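IC₅₀ values were derived by one-site competition analysis of SPA counts. Cell membranes (35 ng/μL) with SPA beads were incubated with test compounds for 120 min at 25° C in Hepes buffer, pH 7.4, containing CaCl2, MgCl₂, OA and Tween20.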

Test [3] addresses T3, human calcitonin receptor (human, UniProt P30988 25-474).
T3 sequence (looked up): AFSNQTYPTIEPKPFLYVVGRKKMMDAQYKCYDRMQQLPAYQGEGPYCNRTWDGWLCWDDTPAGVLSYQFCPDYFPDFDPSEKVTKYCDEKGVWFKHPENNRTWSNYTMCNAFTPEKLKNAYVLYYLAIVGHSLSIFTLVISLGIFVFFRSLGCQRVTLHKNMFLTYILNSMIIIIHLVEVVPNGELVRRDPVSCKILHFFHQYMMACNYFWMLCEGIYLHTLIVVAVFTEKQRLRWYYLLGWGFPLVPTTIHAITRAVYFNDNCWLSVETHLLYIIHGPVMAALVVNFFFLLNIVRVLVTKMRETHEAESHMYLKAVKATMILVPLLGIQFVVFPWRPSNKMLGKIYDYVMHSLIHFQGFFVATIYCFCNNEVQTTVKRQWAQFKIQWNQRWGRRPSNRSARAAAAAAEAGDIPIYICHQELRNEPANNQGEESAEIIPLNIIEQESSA
In words: cell-based or functional assay.

Test [4] deals with T4, human amylin receptor (amylin 3(a) receptor: human calcitonin receptor co-expressed with RAMP-3) (human, UniProt P30988 25-474; O60896 24-148).
T4 sequence (looked up) 1: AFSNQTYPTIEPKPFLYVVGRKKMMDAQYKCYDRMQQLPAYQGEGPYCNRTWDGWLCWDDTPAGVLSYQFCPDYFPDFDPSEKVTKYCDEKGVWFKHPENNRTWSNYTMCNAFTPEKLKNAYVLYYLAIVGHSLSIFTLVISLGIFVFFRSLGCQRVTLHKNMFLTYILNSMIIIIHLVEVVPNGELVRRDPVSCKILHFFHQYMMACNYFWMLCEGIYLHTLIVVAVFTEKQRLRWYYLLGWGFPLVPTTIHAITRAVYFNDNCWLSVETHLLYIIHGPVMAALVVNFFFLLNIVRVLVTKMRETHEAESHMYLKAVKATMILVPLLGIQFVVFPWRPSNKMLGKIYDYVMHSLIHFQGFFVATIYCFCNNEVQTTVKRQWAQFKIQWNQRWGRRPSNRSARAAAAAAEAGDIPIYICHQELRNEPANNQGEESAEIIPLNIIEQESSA
T4 sequence (looked up) 2: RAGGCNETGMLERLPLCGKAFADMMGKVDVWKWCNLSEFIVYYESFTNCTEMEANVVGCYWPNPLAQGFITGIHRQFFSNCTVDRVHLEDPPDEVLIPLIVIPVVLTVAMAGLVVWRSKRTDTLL
Briefly: cell-based or functional assay.

The target in test [5] is T4, human amylin receptor (amylin 3(a) …). In words: SPA competition binding, membranes of Amylin 3(a)/CRE-luc BHK cells, displacement of 125I-rat amylin (Assay V). The procedure, abridged:
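Cell membranes were prepared by homogenisation in Na-HEPES/EDTA buffer, pH 7.4, and stored at −80° C. They were then coupled to SPA beads at 35 ng/μL final and exposed to compounds in assay buffer containing CaCl2, MgCl₂, OA and Tween20. After 120 min at 25° C, plates were counted and IC₅₀ derived.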

B1: N^ε1-[(4S)-4-carboxy-4-[[(4S)-4-carboxy-4-(19-carboxynonadecanoylamino)butanoyl]amino]butanoyl]-[Asp14,Arg17,Pro21,Pro27,Asp35]-h-amylin (peptide)
peptide: K([γGlu-γGlu-C20 diacid])CNTATCATQRLADFLRHSSPNFGAIPSSTNVGSDTY-NH2
modifications: disulfide 2-7; N-terminus assumed
SMILES: CC[C@H](C)[C@H](NC(=O)[C@H](C)NC(=O)CNC(=O)[C@H](Cc1ccccc1)NC(=O)[C@H](CC(N)=O)NC(=O)[C@@H]1CCCN1C(=O)[C@H](CO)NC(=O)[C@H](CO)NC(=O)[C@H](Cc1c[nH]cn1)NC(=O)[C@H](CCCNC(=N)N)NC(=O)[C@H](CC(C)C)NC(=O)[C@H](Cc1ccccc1)NC(=O)[C@H](CC(=O)O)NC(=O)[C@H](C)NC(=O)[C@H](CC(C)C)NC(=O)[C@H](CCCNC(=N)N)NC(=O)[C@H](CCC(N)=O)NC(=O)[C@@H](NC(=O)[C@H](C)NC(=O)[C@@H]1CSSC[C@H](NC(=O)[C@@H](N)CCCCNC(=O)CC[C@H](NC(=O)CC[C@H](NC(=O)CCCCCCCCCCCCCCCCCCC(=O)O)C(=O)O)C(=O)O)C(=O)N[C@@H](CC(N)=O)C(=O)N[C@@H]([C@@H](C)O)C(=O)N[C@@H](C)C(=O)N[C@@H]([C@@H](C)O)C(=O)N1)[C@@H](C)O)C(=O)N1CCC[C@H]1C(=O)N[C@@H](CO)C(=O)N[C@@H](CO)C(=O)N[C@H](C(=O)N[C@@H](CC(N)=O)C(=O)N[C@H](C(=O)NCC(=O)N[C@@H](CO)C(=O)N[C@@H](CC(=O)O)C(=O)N[C@H](C(=O)N[C@@H](Cc1ccc(O)cc1)C(N)=O)[C@@H](C)O)C(C)C)[C@@H](C)O
notes: Synthetic analogue; also called compound 2
As for B1, the IC50 (commonly the concentration at which inhibition is half-maximal) with human amylin receptor amounted to 0.411 nM; in test [1], 19.5 nM. Further, the “Ratio hCT/hAmylin binding” value in test [2] was found to be 47.5.

B2: N^ε1-[(4S)-4-carboxy-4-[[(4S)-4-carboxy-4-(19-carboxynonadecanoylamino)butanoyl]amino]butanoyl]-[Glu14,Arg17,Pro23,Pro34,Glu35]-h-amylin (peptide)
peptide: K([γGlu-γGlu-C20 diacid])CNTATCATQRLAEFLRHSSNNPGAILSSTNVGPETY-NH2
modifications: disulfide 2-7 (inferred)
notes: Synthetic acylated analogue of human amylin
Turning to B2, in test [3], the “Ratio hCT/hAmylin funct. (hCTR EC50 against hAmylin-R EC50)” value is 17.3 and the “hCTR funct. EC50 (pM), CRE-luciferase reporter in BHK calcitonin (a) receptor cells” value was found to be 89600 pM. Besides, in test [4], the “hAmylin-R funct. EC50 (pM), CRE-luciferase reporter in BHK amylin 3(a) receptor cells” value was 5170 pM. Besides, the IC50 in test [5] was 1.19 nM.

B3: N^ε1-[(4S)-4-carboxy-4-[[(4S)-4-carboxy-4-(19-carboxynonadecanoylamino)butanoyl]amino]butanoyl]-[Glu14,Arg17,Pro21,Pro27,Pro34,Phe37]-h-amylin (peptide)
peptide: K([γGlu-γGlu-C20 diacid])CNTATCATQRLAEFLRHSSPNFGAIPSSTNVGPNTF-NH2
modifications: disulfide 2-7 (inferred)
notes: as for B2
As for B3, in test [3], the “Ratio hCT/hAmylin funct. (hCTR EC50 against hAmylin-R EC50)” value was 9.9 and the “hCTR funct. EC50 (pM), CRE-luciferase reporter in BHK calcitonin (a) receptor cells” value was 2140 pM. Besides, the “hAmylin-R funct. EC50 (pM), CRE-luciferase reporter in BHK amylin 3(a) receptor cells” value in test [4] was found to be 216 pM. The IC50 in test [5] was found to be 0.152 nM.

B4: N^α1-[2-[2-[2-[[2-[2-[2-[[(4S)-4-carboxy-4-(19-carboxynonadecanoylamino)butanoyl]amino]ethoxy]ethoxy]acetyl]amino]ethoxy]ethoxy]acetyl]-[Arg17,Pro21,Pro27]-h-am … (peptide)
peptide: KCNTATCATQRLANFLRHSSPNFGAIPSSTNVGSNTY
modifications: C20 diacid-gGlu-2xOEG on the alpha amino group of the N-terminal residue (Lys1); disulfide Cys2-Cys7; C-terminal amide
notes: Synthetic analogue; also called compound 24
On to B4, for which the IC50 is 1.14 nM with human amylin receptor and 102 nM in test [1]. Besides, the “Ratio hCT/hAmylin binding” value in test [2] was found to be 90.
